Publication PMC5095914

What was measured:
[1] = molecular target: xFOc (subunit c of the ATP synthase with cysteines C21 and C65), in vitro translated (E. coli) (UniProt P68699); test: cross-linking; xFOc translated in vitro and inserted into proteoliposomes (large scale); mild oxidising conditions (lipids, atmospheric oxygen), no CuPh; non-reducing SDS-PAGE, phosphor imaging; c10-ring with HTL, SecYEG or without YidC, not with YidC alone
[2] = molecular target: YidC cysteine mutant labelled with Cy3 at position 454 (E. coli) (UniProt P25714); test: other fluorescence titration; 60 nM Cy3-labelled YidC in 20 mM Hepes/KOH pH 7.5, 100 mM KCl, 10 mM MgOAc2, 5% glycerol, 0.1% DDM mixed 1:1 with 0.6 nM to 19.2 µM 70S ribosomes; 10 min at 20°C; fluorescence intensity on a Monolith NT.115; four repeats
[3] = molecular target: xFOc (subunit c of the ATP synthase with cysteines C21 and C65), expressed in E. coli C43 membranes (E. coli) (UniProt P68699); test: cross-linking; E. coli C43 membranes expressing xFOc oxidised with copper-1,10-phenanthroline (CuPh), with or without DTT; SDS-PAGE, western blotting with FOc antibody

Substance: xFOc (subunit c of the ATP synthase with cysteines C21 and C65), in vitro translated (from UniProt P68699 1-79) (natural protein)
- stoichiometry N [1]: 10

Substance: 70S ribosomes (complex)
- Kd [2]: 161 nM

Substance: xFOc (subunit c of the ATP synthase with cysteines C21 and C65), expressed in E. coli C43 membranes (from UniProt P68699 1-79) (natural protein)
- stoichiometry N [3]: 10
